Changes are numbered by the printed parent chain. Where two headings read alike, the source gives them in different places. Values belong to the binder of their own block, whether it stands above or below them.
Key:
Assay in all cases: SPR
mFcgRIV = target: T1, mFcgRIV (mouse, UniProt A0A0B4J1G0)
T1 chain: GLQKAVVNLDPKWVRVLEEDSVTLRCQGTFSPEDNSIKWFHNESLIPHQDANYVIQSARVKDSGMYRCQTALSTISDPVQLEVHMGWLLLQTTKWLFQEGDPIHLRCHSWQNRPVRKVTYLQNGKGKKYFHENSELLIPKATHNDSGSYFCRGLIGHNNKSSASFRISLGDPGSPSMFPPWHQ

mFcgRI = target: T2, mFcgRI (mouse, UniProt P26151)
T2 chain: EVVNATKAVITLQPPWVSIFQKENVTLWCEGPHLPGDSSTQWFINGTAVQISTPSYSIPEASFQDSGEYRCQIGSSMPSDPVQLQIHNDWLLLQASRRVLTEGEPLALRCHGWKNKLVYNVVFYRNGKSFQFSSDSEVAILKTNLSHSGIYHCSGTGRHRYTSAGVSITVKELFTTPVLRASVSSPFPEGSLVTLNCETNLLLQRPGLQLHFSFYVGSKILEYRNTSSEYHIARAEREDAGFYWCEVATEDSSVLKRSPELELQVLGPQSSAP

FcgRIIIaV [1] = target: T3, FcgRIIIaV (human, UniProt P08637)
FcgRIIaR [2] = target: T4, FcgRIIaR (human, UniProt P12318)
T4 chain: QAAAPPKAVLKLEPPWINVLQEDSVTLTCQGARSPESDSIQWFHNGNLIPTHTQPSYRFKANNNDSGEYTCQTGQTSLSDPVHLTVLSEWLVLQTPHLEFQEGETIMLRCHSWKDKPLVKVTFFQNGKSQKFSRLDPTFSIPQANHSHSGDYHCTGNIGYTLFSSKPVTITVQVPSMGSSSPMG

FcgRIIaH [3] = target: T5, FcgRIIaH (human, UniProt P12318)
T5 chain: T4 chain with R134H

FcgRIIaH [4] = target: T5, FcgRIIaH
FcgRIIIaV [5] = target: T3, FcgRIIIaV; remark: listed apart in the source
FcgRIIaR [6] = target: T4, FcgRIIaR
FcgRIa [7] = target: T6, FcgRIa (human, UniProt P12314)
T6 chain: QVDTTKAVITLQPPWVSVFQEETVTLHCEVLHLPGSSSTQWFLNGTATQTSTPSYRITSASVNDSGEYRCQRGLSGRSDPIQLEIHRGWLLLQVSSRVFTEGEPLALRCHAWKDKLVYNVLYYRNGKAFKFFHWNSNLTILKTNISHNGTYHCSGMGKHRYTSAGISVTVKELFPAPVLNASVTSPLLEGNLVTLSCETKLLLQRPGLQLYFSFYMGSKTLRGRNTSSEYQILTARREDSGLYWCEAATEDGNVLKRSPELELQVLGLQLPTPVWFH

FcgRIIb [8] = target: T7, FcgRIIb (human, UniProt P31994)
T7 chain: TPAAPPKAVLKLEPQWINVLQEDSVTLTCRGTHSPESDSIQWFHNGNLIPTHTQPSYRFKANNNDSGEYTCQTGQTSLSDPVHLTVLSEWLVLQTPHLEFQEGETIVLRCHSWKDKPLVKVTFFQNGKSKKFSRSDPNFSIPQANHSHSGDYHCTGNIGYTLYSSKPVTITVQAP

FcgRIIb [9] = target: T7, FcgRIIb
FcgRIa [10] = target: T6, FcgRIa

T3 sequence (P08637 17-208 F176V): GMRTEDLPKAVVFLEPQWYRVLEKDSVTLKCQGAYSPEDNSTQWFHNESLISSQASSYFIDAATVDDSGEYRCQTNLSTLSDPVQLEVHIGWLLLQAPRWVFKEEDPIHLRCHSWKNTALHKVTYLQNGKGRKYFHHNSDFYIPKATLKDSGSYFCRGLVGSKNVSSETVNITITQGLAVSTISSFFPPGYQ

binding result (mFcgRIV): no binding | binding result (mFcgRI): no binding
B1: VH3/L(WT)-mIgG1 (antibody)
chain 1: QVQLQESGPGLVKPSETLSLTCAVSGHSISHDHAWSWVRQPPGEGLEWIGFISYSGITNYNPSLQGRVTISRDNSKNTLYLQMNSLRAEDTAVYYCARSLARTTAMDYWGEGTLVTVSSAKTTPPSVYPLAPGSAAQTNSMVTLGCLVKGYFPEPVTVTWNSGSLSSGVHTFPAVLQSDLYTLSSSVTVPSSTWPSETVTCNVAHPASSTKVDKKIVPRDCGCKPCICTVPEVSSVFIFPPKPKDVLTITLTPKVTCVVVDISKDDPEVQFSWFVDDVEVHTAQTQPREEQFNSTFRSVSELPIMHQDWLNGKEFKCRVNSAAFPAPIEKTISKTKGRPKAPQVYTIPPPKEQMAKDKVSLTCMITDFFPEDITVEWQWNGQPAENYKNTQPIMDTDGSYFVYSKLNVQKSNWEAGNTFTCSVLHEGLHNHHTEKSLSHSPGK
chain 2: not shown

Kd (FcgRIIIaV [1]): 28 µM | Kd (FcgRIIaR [2]): 0.71 µM | Kd (FcgRIIaH [3]): 12 µM | Kd (FcgRIIaH [4]): 14 µM | Kd (FcgRIIIaV [5]): 32 µM | Kd (FcgRIIaR [6]): 1.2 µM | Kd (FcgRIa [7]): 0.00071 µM | Kd (FcgRIIb [8]): 0.028 µM | Kd (FcgRIIb [9]): 0.015 µM | Kd (FcgRIa [10]): 0.00021 µM
B2: IL6R-P587/IL6R-L (antibody)
chain 1: QVQLQESGPGLVKPSETLSLTCAVSGHSISHDHAWSWVRQPPGEGLEWIGFISYSGITNYNPSLQGRVTISRDNSKNTLYLQMNSLRAEDTAVYYCARSLARTTAMDYWGEGTLVTVSSASTKGPSVFPLAPSSKSTSGGTAALGCLVKDYFPEPVTVSWNSGALTSGVHTFPAVLQSSGLYSLSSVVTVPSSSLGTQTYICNVNHKPSNTKVDKKVEPKSCDKTHTCPPCPAPDLLGGDSVFLFPPKPKDTLMISRTPEVTCVVIDVAEEDGEVKFNWYVDGVEVHNAKTKPREEQYNSTYRVVSVLTVLHQDWLNGKEYKCKVSNKALPAPIEKTISKAKGQPREPQVYTLPPSRDELTKNQVSLTCLVKGFYPSDIAVEWESNGQPENNYKTTPPVLDSDGSFFLYSKLTVDKSRWQQGNVFSCSVMHEALHNHYTQKSLSLSP
chain 2: not shown

— patent US11267868 (dated 2022)
